EC50 data for eight molecules are collected here from US20120213771A1 (CELLDEX THERAPEUTICS, published 2012).

The target of assay [1] is T1, recombinant purified human CD27 (human, UniProt P26842 20-191).
T1 construct: also called soluble or recombinant human CD27
T1 sequence: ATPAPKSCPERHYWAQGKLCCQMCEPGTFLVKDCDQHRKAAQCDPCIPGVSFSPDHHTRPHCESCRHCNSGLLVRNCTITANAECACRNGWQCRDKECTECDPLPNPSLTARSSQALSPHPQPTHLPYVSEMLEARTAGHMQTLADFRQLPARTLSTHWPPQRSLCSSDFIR
Nature of the assay: ELISA on CD27-coated plates, half-max binding (C value of 4-parameter fit). As to the method: Microtiter plates were coated with soluble or recombinant human or macaque CD27 in PBS, and then blocked with 5% bovine serum albumin in PBS. Protein A purified human mAbs and an isotype control were added at […] concentrations and incubated at 37° C. The plates were washed with PBS/Tween and then incubated with a goat-anti-human IgG Fc-specific polyclonal reagent conjugated to alkaline phosphatase at 37° C. After washing, the plates were developed with pNPP substrate (1 mg/ml), and analyzed at OD 405-650 using a microtiter plate reader.

The target in assay [2] is T2, purified recombinant monkey (macaque) CD27 (macaque).
T2 construct: The paragraph speaks of cynomolgus macaques as the model; the protein itself is only called macaque / monkey CD27; Captured with anti-Flag antibody in one format; also called monkey CD27
Nature of the assay: ELISA on plate-bound monkey CD27, half-max binding.

“And” between values parts separate entries of the source, which are not always exact repeats. Equal values may be shown once.

B1: 2G9-1D11 (antibody, V domains shown)
VH: QVQLVESGGGVVQPGRSLRLSCAASGFTLSSHDIHWVRQAPGKGLEWVAVIWNDGSNKYYADSVKGRFTISRDNSTNSLFLQMNSLRAEDTAVYYCVRGTADLEHWDQGTLVTVSS
VL: DIQMTQSPSSLSASVGDRVTITCRASQGISSWLAWYQQKPEKAPKSLIYAASSLQSGVPSRFSGSGSGTDFTLTISSLQPEDFATYYCQQYNSYPLTFGGGTKVEIK
notes: Human IgG from hybridoma
Usually EC50 stands for the concentration needed to bring the measured effect to its halfway point. In the case of B1, the EC50 is 0.43 nM and 0.064 µg/mL in assay [1]; 0.069 µg/mL in assay [2].

B2: 3A10-G10 (antibody, V domains shown)
VH: QVQLVESGGGVVQPGRSLRLSCAASGFTFSHYGMHWVRQAPGKGPEWVAIIWYDGSNKYYADSVKGRFTISRDNSKNTLDLQMNSLRAEDTAVYYCARDGWTTMVRGLNVFDIWGQGTMVTVSS
VL: DIQMTQSPSSLSASVGDRVTITCRASQDISSWLAWYQQKPEKAPKSLIYAASSLQSGVPSRFSGSGSGTDFTLTISSLQPEDFATYYCQQYNSYPPTFGQGTRLEIK
notes: Human IgG from hybridoma; also called 3A10-1G10
Turning to B2, the EC50 in assay [1] is 0.63 nM and 0.094 µg/mL.

B3: 2C2-1A10 (antibody, V domains shown)
VH: QVQLVESGGGVVQPGRSLRLSCAASGFTFSSYDIHWVRQAPGKGLEWVAVIWNDGSNKYYADSVKGRFTISRDNSTNSLFLQMNSLRAEDTAVYYCVGGTADLEHWDQGTLVTVSS
VL: DIQMTQSPSSLSASVGDRVTITCRASQGISSWLAWYQQKPEKAPKSLIYAASSLQSGVPSRFSGSGSGTDFTLTISSLQPEDFATYYCQQYNSYPLTFGGGTKVEIK
notes: Human IgG from hybridoma
Consider B3, for which the EC50 is 0.3 nM and 0.045 µg/mL in assay [1]; 0.034 µg/mL in assay [2].

B4: 3H8-1B11 (antibody, V domains shown)
VH: EVQLVESGGGLVQPGGSLRLSCAASGFTFSSYWMAWVRQAPGKGLEWLGNIKQDGSEKYYVDSVKGRFTISRDNAKNSLYLQMNSLRAEDTAVYYCVRELGMDWYFDLWGRGTLVTVSS
VL: EIVLTQSPATLSLSPGERATLSCRASQSVDSYLAWYQQKPGQAPRLLIYDASNRATGIPARFSGSGSGTDFTLTISNLEPEDFAVYYCQQRSNWPPTFGQGTKVEIK
notes: Human IgG from hybridoma
For B4, the EC50 is 0.46 nM and 0.069 µg/mL in assay [1]; 0.065 µg/mL in assay [2].

B5: 1G5-1B9 (antibody, V domains shown)
VH: QVQLVESGGGVVQPGRSLRLSCAASGFSFSSYGMHWVRQAPGKGLEWVALLWYDGSHKDFADSVKGRFTISRDNSKNTLDLQMNSLRAEDTAVYYCAREGLAVPGHWYFDLWGRGTLVTVSS
VL: AIQLTQSPSSLSASVGDRVTITCRASQGISSALAWYQQKPGKAPKLLIYDASSLESGVPSRFSGSGSGTDFTLTISSLQPEDFATYYCQQFNTYPRTFGQGTKVEIK
notes: Human IgG from hybridoma
In the case of B5, the EC50 in assay [1] is 0.49 nM and 0.074 µg/mL; in assay [2] it was 0.065 µg/mL.

B6: 1F5-1H5 (antibody, V domains shown)
VH: QVQLVESGGGVVQPGRSLRLSCAASGFTFSSYDMHWVRQAPGKGLEWVAVIWYDGSNKYYADSVKGRFTISRDNSKNTLYLQMNSLRAEDTAVYYCARGSGNWGFFDYWGQGTLVTVSS
VL: DIQMTQSPSSLSASVGDRVTITCRASQGISRWLAWYQQKPEKAPKSLIYAASSLQSGVPSRFSGSGSGTDFTLTISSLQPEDFATYYCQQYNTYPRTFGQGTKVEIK
notes: Fully human IgG from HuMAb mouse hybridoma, protein A purified; Human IgG1 is used as its isotype control; also called mAb 1F5; anti-CD27 mAb 1F5
Turning to B6, the EC50 in assay [1] was 0.39 nM and 0.059 µg/mL; in assay [2] it was 0.12 µg/mL.

B7: 1H8-B4 (antibody, V domains shown)
VH: QVQLVESGGGVVQPGRSLRLSCAASGFTFNIYDMHWVRQAPGKGLEWVAVIWYDGSNQYYADSVKGRFTISRDNSKNTLYLQMNILRAEDTAVYYCARGTHWGYFDYWGQGTLVTVSS
VL: DIQMTQSPSSLSASVGDRVTITCRASQGISSWLAWYQQKPEKAPKSLIYAASNLQSGVPSRFSGSGSGTDFTLTISSLQPEDFATYYCQQYNSYPRTFGQGTKVEIK
notes: Human IgG from hybridoma
On to B7, for which the EC50 in assay [1] was 0.43 nM and 0.064 µg/mL; in assay [2] it was 0.105 µg/mL.

B8: 3H12-1E12 (antibody, V domains shown)
VH: QVQLVESGGGVVQPGRSLRLSCATSGFTFSSYDMHWVRQAPGKGLEWVAVIWYDGSNKYYADSVKGRFTISRDNSKNTLYLQMNSLGDEDTAVYYCARGSGNWGFFDYWGQGTLVTVSS
VL: DIQMTQSPSSLSASVGDRVTITCRASQGISRWLAWYQQKPEKAPKSLIYAASSLQSGVPSRFSGSGSGTDFTLTISSLQPEDFATYYCQQYNTYPRTFGQGTKVEIK
notes: Human IgG from hybridoma; Two subclones (3H12-1C8 and 3H12-1E12) are both called 3H12; also called 3H12-1C8
With B8, the EC50 is 0.57 nM and 0.085 µg/mL in assay [1]; 0.123 µg/mL in assay [2].
